In assay [1] the target is GST-PSD95 PDZ domain fusion protein (human post-synaptic density protein 95 AA387-724; PDZ domains 1-3 of 3) (human) [GST: P08515]. Description: G assay, peptide titrated on immobilized GST-PDZ, saturation fit (apparent affinity).
For assay [2], the target named is GST-NeDLG PDZ domain fusion protein (presynaptic protein sao102, neuroendocrine-dlg; PDZ domains 1-2 of 3) [GST: P08515]. The description is as above.
Assay [3] concerns the target GST polypeptide alone (not a fusion protein) [GST: P08515]. Briefly: G assay, immobilized GST alone (background control).
Assay [4] has as its target GST-DLG1 PDZ domain fusion protein (human homolog of Drosophila discs large protein AA275-477; PDZ domains 1-2 of 3) (human) [GST: P08515]. Briefly: G assay, peptide titrated on immobilized GST-PDZ, saturation fit (apparent affinity).

Ends that are not written are not given here. * marks the point of attachment. Biotin = O=C1N[C@H]2[C@H](CS[C@H]2CCCCC(=O)*)N1

Sequence of GST-PSD95 PDZ domain fusion protein (human post-synaptic density protein 95 AA387-724; PDZ domains 1-3 of 3) (human) [GST: P08515] (P08515 1-218, tags or fused parts left off): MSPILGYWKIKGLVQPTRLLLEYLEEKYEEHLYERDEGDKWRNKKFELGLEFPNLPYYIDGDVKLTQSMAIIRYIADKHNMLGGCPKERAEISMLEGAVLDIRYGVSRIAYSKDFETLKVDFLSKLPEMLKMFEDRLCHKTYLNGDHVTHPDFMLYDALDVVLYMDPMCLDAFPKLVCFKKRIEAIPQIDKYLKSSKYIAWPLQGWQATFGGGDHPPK
Sequence of GST-DLG1 PDZ domain fusion protein (human homolog of Drosophila discs large protein AA275-477; PDZ domains 1-2 of 3) (human) [GST: P08515] (P08515 1-218, tags or fused parts left off): as above
Sequence of GST polypeptide alone (not a fusion protein) [GST: P08515] (P08515 whole entry, the tested form may be a part): as the sequence (P08515 1-218, tags or fused parts left off) above
Sequence of GST-NeDLG PDZ domain fusion protein (presynaptic protein sao102, neuroendocrine-dlg; PDZ domains 1-2 of 3) [GST: P08515] (P08515 1-218, tags or fused parts left off): as above

In the case of ISGTPTSTMVHGMTSSSSVV (modifications not checked) [CLASP-2 C-terminal PL peptide AA2L (C-terminal 20 amino acids), biotinylated], the results for the Kd in assay [1] and in assay [2] were 45 µM and 7.5 µM, respectively. In addition, in assay [3], the OD (binding to GST alone) was less than 0.2 OD units.
Regarding Biotin-KDITSDSENSNFRNEIQSLV [CD95 (Apo-1/Fas) C-terminal PL peptide AA13L, biotinylated], in assay [4], the Kd is 54 µM.

The values are drawn from US20090149339A1.
